Consider 35 substances from patent US20090099029.

Sequence of NTRK2 (chain, as listed by the source): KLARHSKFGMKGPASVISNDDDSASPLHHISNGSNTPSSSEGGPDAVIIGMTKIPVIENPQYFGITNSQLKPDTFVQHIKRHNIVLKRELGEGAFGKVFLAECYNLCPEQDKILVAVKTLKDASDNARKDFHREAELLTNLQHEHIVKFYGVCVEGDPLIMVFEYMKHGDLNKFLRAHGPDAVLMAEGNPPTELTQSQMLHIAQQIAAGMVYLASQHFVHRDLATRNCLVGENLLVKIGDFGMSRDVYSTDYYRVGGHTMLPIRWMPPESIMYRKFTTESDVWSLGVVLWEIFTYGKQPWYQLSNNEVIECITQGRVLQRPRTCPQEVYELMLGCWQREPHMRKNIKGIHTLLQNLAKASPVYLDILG
Sequence of PHKG1 (chain, as listed by the source): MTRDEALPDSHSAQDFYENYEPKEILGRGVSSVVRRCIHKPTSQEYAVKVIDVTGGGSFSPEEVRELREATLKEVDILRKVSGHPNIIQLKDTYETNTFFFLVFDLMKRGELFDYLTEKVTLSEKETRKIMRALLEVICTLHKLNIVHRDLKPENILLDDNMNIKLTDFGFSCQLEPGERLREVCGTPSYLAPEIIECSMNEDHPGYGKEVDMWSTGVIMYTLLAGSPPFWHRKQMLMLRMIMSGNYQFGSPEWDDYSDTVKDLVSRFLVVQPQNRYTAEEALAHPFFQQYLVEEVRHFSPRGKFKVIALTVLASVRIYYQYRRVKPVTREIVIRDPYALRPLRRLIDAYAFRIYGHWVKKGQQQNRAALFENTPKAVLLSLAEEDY
Sequence of BLK (chain, as listed by the source): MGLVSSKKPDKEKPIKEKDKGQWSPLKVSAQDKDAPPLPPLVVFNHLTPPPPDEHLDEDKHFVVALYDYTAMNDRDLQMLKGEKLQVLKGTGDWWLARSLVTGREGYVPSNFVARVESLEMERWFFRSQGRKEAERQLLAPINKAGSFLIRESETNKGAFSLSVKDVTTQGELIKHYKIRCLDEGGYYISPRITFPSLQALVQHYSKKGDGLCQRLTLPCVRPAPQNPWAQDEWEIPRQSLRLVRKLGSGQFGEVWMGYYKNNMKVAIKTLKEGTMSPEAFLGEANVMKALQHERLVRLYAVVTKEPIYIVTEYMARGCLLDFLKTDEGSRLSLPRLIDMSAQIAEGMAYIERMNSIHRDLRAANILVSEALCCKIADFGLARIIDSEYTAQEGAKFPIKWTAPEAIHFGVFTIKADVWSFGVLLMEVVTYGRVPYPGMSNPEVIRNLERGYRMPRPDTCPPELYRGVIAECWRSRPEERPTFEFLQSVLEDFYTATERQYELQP
Sequence of FYN (chain, as listed by the source): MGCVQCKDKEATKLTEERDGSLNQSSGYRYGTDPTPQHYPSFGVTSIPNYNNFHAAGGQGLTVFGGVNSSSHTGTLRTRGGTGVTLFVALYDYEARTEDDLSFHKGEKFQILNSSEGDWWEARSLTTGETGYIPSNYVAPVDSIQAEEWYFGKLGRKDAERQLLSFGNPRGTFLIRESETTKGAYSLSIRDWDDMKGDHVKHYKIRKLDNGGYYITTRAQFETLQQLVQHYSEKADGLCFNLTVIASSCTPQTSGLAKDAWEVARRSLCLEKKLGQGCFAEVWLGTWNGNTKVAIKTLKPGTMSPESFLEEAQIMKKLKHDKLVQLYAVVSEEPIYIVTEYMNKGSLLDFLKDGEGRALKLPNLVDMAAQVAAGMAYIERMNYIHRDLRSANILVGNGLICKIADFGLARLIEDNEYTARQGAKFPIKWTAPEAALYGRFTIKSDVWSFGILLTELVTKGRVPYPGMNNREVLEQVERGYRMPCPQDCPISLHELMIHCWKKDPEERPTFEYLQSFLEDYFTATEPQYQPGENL
Sequence of MST4 (chain, as listed by the source): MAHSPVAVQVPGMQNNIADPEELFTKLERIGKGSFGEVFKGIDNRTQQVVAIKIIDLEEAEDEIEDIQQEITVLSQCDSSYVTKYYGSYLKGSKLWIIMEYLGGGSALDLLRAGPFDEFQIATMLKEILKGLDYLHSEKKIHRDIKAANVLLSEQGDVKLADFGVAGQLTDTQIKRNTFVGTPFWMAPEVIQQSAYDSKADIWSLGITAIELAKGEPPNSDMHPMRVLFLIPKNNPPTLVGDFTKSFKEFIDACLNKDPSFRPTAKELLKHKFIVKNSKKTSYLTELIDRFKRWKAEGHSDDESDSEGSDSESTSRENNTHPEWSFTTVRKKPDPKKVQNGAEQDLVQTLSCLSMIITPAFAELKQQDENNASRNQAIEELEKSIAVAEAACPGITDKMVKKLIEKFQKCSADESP
Sequence of PIM1 (chain, as listed by the source): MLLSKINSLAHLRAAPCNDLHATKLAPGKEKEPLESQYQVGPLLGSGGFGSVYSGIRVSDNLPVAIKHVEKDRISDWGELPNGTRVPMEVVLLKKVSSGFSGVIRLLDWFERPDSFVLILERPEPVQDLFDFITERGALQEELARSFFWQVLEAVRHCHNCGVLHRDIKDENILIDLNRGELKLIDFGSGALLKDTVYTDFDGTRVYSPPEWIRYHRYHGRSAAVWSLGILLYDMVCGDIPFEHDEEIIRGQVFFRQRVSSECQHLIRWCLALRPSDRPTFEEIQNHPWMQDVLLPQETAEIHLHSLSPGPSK
Sequence of STK25(YSK1) (chain, as listed by the source): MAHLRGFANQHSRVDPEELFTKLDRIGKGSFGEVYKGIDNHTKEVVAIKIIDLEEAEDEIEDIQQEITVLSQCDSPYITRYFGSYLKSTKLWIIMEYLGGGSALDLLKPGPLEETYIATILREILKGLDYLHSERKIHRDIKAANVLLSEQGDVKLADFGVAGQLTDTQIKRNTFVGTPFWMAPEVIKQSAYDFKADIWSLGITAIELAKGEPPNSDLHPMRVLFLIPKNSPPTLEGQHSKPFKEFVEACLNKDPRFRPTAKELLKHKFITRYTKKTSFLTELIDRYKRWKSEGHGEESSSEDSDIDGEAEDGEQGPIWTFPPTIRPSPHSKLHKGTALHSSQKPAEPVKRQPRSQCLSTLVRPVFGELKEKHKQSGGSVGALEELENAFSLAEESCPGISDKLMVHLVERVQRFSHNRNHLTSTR
Sequence of CLK4 (chain, as listed by the source): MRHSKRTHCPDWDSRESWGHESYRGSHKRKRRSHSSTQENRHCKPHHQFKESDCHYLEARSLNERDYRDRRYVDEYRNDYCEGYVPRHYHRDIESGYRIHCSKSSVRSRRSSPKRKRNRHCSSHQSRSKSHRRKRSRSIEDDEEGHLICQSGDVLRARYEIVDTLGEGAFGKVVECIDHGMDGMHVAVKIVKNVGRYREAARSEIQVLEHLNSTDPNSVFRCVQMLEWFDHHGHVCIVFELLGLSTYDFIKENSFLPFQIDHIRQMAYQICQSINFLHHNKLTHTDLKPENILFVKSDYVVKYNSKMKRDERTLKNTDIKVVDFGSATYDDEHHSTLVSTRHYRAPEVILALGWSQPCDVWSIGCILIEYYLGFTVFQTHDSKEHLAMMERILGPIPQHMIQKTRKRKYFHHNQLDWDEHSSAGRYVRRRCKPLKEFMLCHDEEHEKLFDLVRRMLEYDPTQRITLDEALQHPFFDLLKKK
Sequence of MAP4K5(KHS1) (chain, as listed by the source): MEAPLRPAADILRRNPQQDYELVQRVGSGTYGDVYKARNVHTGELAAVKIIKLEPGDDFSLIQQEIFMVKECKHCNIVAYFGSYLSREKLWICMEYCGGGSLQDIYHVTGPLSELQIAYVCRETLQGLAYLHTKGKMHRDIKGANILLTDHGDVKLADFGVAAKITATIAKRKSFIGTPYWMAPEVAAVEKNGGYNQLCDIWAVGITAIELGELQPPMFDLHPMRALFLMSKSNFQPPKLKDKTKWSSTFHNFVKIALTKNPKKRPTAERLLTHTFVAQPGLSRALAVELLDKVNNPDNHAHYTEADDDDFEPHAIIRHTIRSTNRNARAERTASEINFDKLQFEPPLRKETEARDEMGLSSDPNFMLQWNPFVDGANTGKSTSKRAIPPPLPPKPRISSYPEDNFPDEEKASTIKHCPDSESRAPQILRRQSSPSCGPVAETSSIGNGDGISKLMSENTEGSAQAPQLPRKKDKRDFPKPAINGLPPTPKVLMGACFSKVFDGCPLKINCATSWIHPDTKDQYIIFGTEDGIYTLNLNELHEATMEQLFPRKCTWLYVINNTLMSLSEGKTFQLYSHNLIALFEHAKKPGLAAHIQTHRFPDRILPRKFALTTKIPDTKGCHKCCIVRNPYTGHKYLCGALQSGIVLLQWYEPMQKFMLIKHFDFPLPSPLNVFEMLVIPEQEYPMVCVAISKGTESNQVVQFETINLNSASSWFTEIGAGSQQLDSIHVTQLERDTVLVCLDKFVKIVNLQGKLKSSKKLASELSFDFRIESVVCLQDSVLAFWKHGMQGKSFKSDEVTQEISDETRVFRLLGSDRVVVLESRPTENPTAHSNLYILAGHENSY
Sequence of PIM2 (chain, as listed by the source): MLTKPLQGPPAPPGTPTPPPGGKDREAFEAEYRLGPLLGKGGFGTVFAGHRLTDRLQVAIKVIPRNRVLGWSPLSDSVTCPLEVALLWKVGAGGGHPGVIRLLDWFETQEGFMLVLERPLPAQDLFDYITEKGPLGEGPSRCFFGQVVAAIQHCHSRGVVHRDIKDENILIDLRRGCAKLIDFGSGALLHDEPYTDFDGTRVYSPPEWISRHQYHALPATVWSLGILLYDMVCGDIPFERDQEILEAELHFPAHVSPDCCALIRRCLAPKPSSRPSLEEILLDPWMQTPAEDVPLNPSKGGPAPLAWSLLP

The series deals with Bovine, dephosphorylated, Myelin Basic Protein (MBP) (UniProt P02687).
Sequence of Bovine, dephosphorylated, Myelin Basic Protein (MBP) (P02687 whole entry): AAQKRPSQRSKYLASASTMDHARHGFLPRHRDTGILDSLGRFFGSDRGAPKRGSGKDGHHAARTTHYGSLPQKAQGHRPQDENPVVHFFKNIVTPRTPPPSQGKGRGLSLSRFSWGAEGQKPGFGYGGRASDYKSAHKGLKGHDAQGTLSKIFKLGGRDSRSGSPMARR
For the substance NEK6, the “MBP Kinase Activity” value was “Negative”.

Consider PRKCB1, for which the “MBP Kinase Activity” value is listed as “Strong”.

NEK7: the “MBP Kinase Activity” value was “Negative”.

Take PHKG1: the “MBP Kinase Activity” value was “Negative”.

As to MST4, the “MBP Kinase Activity” value was “Negative”.

In the case of SGK, the “MBP Kinase Activity” value is listed as “Strong”.

In the case of CSNK1G2, the “MBP Kinase Activity” value is “Negative”.

Turning to MLCK, the “MBP Kinase Activity” value is “Negative”.

Regarding FYN, the “MBP Kinase Activity” value is given as “Strong”.

In the case of AKT1, the “MBP Kinase Activity” value is “Strong”.

For the substance CSNK1G1(CK1gamma1), the “MBP Kinase Activity” value is reported as “Negative”.

In the case of PIM2, the “MBP Kinase Activity” value is given as “Weak”.

For ADRBK2(GRK3), the “MBP Kinase Activity” value was “Negative”.

Consider PIM1, for which the “MBP Kinase Activity” value is “Strong”.

Take PRKCG: the “MBP Kinase Activity” value is given as “Strong”.

As for NTRK2, the “MBP Kinase Activity” value was “Strong”.

Take PKN1(PRK1): the “MBP Kinase Activity” value is recorded as “Strong”.

For YES1, the “MBP Kinase Activity” value is given as “Weak”.

For the substance WEE1, the “MBP Kinase Activity” value is listed as “Negative”.

On to STK24(MST3), for which the “MBP Kinase Activity” value is “Weak”.

CLK4: the “MBP Kinase Activity” value was “Negative”.

CLK3: the “MBP Kinase Activity” value is “Strong”.

Regarding EPHA7, the “MBP Kinase Activity” value is “Weak”.

Consider CDK1/cyclin B, for which the “MBP Kinase Activity” value was “Strong”.

Turning to NTRK1, the “MBP Kinase Activity” value was “Strong”.

As to MAP4K5(KHS1), the “MBP Kinase Activity” value was “Negative”.

In the case of EGFR, the “MBP Kinase Activity” value is on record as “Negative”.

Consider CSNK1G3, for which the “MBP Kinase Activity” value is “Weak”.

For the substance FGR, the “MBP Kinase Activity” value was “Weak”.

For PRKCD, the “MBP Kinase Activity” value is given as “Strong”.

For the substance NTRK3, the “MBP Kinase Activity” value is reported as “Strong”.

Regarding CLK1, the “MBP Kinase Activity” value was “Strong”.

In the case of SGKL(SGK3), the “MBP Kinase Activity” value was “Weak”.

For the substance BLK, the “MBP Kinase Activity” value is listed as “Weak”.

STK25(YSK1): the “MBP Kinase Activity” value was “Strong”.
